Measured values reported in US20140249076A1, “AMYLIN-CALCITONIN CHIMERIC PEPTIDES CONJUGATED TO DURATION ENHANCING MOIETIES” (AMYLIN PHARMACEUTICALS, LLC, priority 2011, published 2014).
One block for each binder: values may come before it. Numbered stars: 1 amine (or outer) side, 2 acyl side, 3 side chain; on linkers, the order of the positions; unused ones are H or OH. Side chains are listed from the residue outwards. Ends that are not written are not given here. γGlu = O=C(O)[C@H](CCC(=O)[*:2])N[*:1]

Experiments:
[1] = molecular target: CGRP receptor (SK-N-MC cell membranes) (UniProt Q16602); assay: displacement of 125I-human CGRP from SK-N-MC cell membranes
Sequence of CGRP receptor (SK-N-MC cell membranes) (Q16602 23-461, chain 1 of 2): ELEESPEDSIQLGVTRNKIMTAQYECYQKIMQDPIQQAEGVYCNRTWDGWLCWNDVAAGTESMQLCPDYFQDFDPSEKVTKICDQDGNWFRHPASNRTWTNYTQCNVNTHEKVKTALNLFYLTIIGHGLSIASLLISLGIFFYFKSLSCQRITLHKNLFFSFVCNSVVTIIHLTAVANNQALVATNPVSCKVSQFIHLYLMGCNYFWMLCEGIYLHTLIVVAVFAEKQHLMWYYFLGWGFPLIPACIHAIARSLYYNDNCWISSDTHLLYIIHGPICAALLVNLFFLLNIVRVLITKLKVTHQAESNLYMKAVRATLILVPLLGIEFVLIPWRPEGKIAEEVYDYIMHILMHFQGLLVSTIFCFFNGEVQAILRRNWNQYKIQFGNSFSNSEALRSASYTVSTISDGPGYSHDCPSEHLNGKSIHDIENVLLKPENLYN
Sequence of CGRP receptor (SK-N-MC cell membranes) (O60894 27-148, chain 2 of 2, further chain): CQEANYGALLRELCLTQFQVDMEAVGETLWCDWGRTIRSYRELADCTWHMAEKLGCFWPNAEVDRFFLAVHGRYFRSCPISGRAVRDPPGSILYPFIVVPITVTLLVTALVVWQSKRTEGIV

[2] = molecular target: amylin receptor (RNA membranes); assay: displacement of 125I-rat amylin from RNA membranes
[3] = molecular target: rat C1a calcitonin receptor (rat) (UniProt P32214); assay: displacement of 125I-human calcitonin from C1a-HEK cell membranes

B1: Cmpd 187 ([K^21ε-(γ-Glu(Nα-C16-Chain))]-Cmpd 17) (peptide)
peptide: KCNTATCALQRLAQELHRLQK([γGlu-C16‑Chain])YPRTNVGSNTY-NH2
modifications: ends and bridges not checked
IC50 [1]: 0.77 nM
IC50 [2]: 0.446 nM
IC50 [3]: 0.151 nM

B2: Cmpd 189 ([K^26ε-(γ-Glu(Nα-C16-Chain))]-Cmpd 17) (peptide)
peptide: KCNTATCALQRLAQELHRLQTYPRTK([γGlu-C16‑Chain])VGSNTY-NH2
modifications: ends and bridges not checked
IC50 [1]: 75 nM
IC50 [2]: 4.01 nM
IC50 [3]: 1.49 nM

B4: Cmpd 192 ([K^1ε-(γ-Glu(Nα-C16-Chain))]-Cmpd 17) (peptide)
peptide: K([γGlu-C16‑Chain])CNTATCALQRLAQELHRLQTYPRTNVGSNTY-NH2
modifications: ends and bridges not checked
IC50 [3]: 0.07 nM

B6: Cmpd 193 ([K^11ε(γ-Glu(Nα-C16-Chain))]-Cmpd 17) (peptide)
peptide: KCNTATCALQK([γGlu-C16‑Chain])LAQELHRLQTYPRTNVGSNTY-NH2
modifications: ends and bridges not checked
IC50 [1]: 46.5 nM
IC50 [2]: 0.73 nM
IC50 [3]: 0.168 nM

B7: Cmpd 188 ([K^24ε-(γ-Glu(Nα-C16-Chain))]-Cmpd 17) (peptide)
peptide: KCNTATCALQRLAQELHRLQTYPK([γGlu-C16‑Chain])TNVGSNTY-NH2
modifications: ends and bridges not checked
IC50 [1]: 100 nM
IC50 [2]: 1.61 nM
IC50 [3]: 0.898 nM

The remaining lines, values ahead:

IC50 [3]: 0.095 nM
B3: Cmpd 17 (peptide)
peptide: KCNTATCALQRLAQELHRLQTYPRTNVGSNTY-NH2
modifications: ends and bridges not checked

IC50 [1]: 26.3 nM
IC50 [2]: 0.806 nM
IC50 [3]: 1.07 nM
B5: Cmpd 186 ([K^18ε-(γ-Glu(Nα-C16-Chain))]-Cmpd 17) (peptide)
peptide: KCNTATCALQRLAQELHK([γGlu-C16‑Chain])LQTYPRTNVGSNTY-NH2
modifications: ends and bridges not checked

IC50 [3]: 0.046 nM
B8: Cmpd 195 (Kε-(γ-Glu(Nα-C16-Chain))-Cmpd 17) (peptide)
peptide: K([γGlu-C16‑Chain])KCNTATCALQRLAQELHRLQTYPRTNVGSNTY-NH2
modifications: ends and bridges not checked
